{"source": "patent US20230053360", "key": {"[1]": {"system": "MMPpep, (prA)GGPQGIWGQG(azK), as the DNA1-MMPpep-DNA2 triblock conjugate linking two DX tiles"}, "[2]": {"system": "MMPpep-scram, (prA)GQGIPQGWGG(azK), as a DNA-peptide-DNA conjugate linking two DX tiles"}}}
{"substance": "human matrix metalloproteinase 8", "values": [{"measurement": "cleavage of DX tile dimer to individual tiles, native PAGE", "setting": "[1]", "result": "Following addition of MMP8 (4 ng protein, incubation for 48 h at 37 °C in PBS) a single band is once again seen, corresponding to the individual tiles"}, {"measurement": "cleavage of DX tile dimer to individual tiles, native PAGE", "setting": "[2]", "result": "did not show any cleavage to individual tiles"}]}
